Results: the Immune Epitope Database (IEDB)

Key:
[1] = molecular target: HLA-B*07:02; assay: IEDB peptide-MHC binding, purified MHC/competitive/radioactivity; filed as Kd, often an IC50 or EC50 that approximates it; ≥ and ≤ were set here for values at or beyond the usual limits of such assays
[2] = molecular target: HLA-B*35:01; assay: as above
[3] = molecular target: HLA-B*51:01; assay: as above
[4] = molecular target: HLA-B*53:01; assay: as above
[5] = molecular target: HLA-B*54:01; assay: as above
[6] = molecular target: HLA-A*02:01; assay: IEDB peptide-MHC binding, purified MHC/competitive/fluorescence; filed as Kd, often an IC50 or EC50 that approximates it; ≥ and ≤ were set here for values at or beyond the usual limits of such assays
[7] = molecular target: HLA-A*02:02; assay: IEDB peptide-MHC binding, purified MHC/competitive/radioactivity; filed as Kd, often an IC50 or EC50 that approximates it; ≥ and ≤ were set here for values at or beyond the usual limits of such assays; details: source organism: Vaccinia virus WR
[8] = molecular target: HLA-A*02:03; assay: as above; details: source organism: Vaccinia virus WR
[9] = molecular target: HLA-A*02:06; assay: as above; details: source organism: Vaccinia virus WR
[10] = molecular target: HLA-B*40:01; assay: as above
[11] = molecular target: HLA-B*44:02; assay: as above
[12] = molecular target: HLA-B*44:03; assay: as above
[13] = molecular target: HLA-B*18:01; assay: IEDB peptide-MHC binding, purified MHC/direct/fluorescence; filed as Kd, often an IC50 or EC50 that approximates it; ≥ and ≤ were set here for values at or beyond the usual limits of such assays
[14] = molecular target: HLA-B*40:01; assay: as above; details: source organism: Mammarenavirus lassaense
[15] = molecular target: HLA-A*02:01; assay: IEDB peptide-MHC binding, purified MHC/competitive/radioactivity; filed as Kd, often an IC50 or EC50 that approximates it; ≥ and ≤ were set here for values at or beyond the usual limits of such assays
[16] = molecular target: HLA-B*48:01; assay: IEDB peptide-MHC binding, purified MHC/direct/fluorescence; filed as Kd, often an IC50 or EC50 that approximates it; ≥ and ≤ were set here for values at or beyond the usual limits of such assays
[17] = molecular target: HLA-B*57:01; assay: as above; details: source organism: Entamoeba histolytica HM-1:IMSS
[18] = molecular target: HLA-B*58:01; assay: as above; details: source organism: Entamoeba histolytica HM-1:IMSS
[19] = molecular target: HLA-B*27:05; assay: as above; details: source organism: Mammarenavirus lassaense
[20] = source organism: Vaccinia virus WR
[21] = source organism: Dengue virus 2 Jamaica/1409/1983
[22] = source organism: Dengue virus 1 Nauru/West Pac/1974
[23] = source organism: Dengue virus 4 Philippines/H241/1956
[24] = source organism: Mammarenavirus choriomeningitidis
[25] = source organism: Mammarenavirus lassaense
[26] = source organism: Dengue virus 1 Brazil/97-11/1997
[27] = source organism: Lassa virus Josiah
[28] = source organism: Dengue virus 3 Martinique/1243/1999
[29] = source organism: Lymphocytic choriomeningitis virus (strain WE)
[30] = source organism: Dengue virus 1 Singapore/S275/1990
[31] = source organism: West Nile virus
[32] = source organism: Triticum aestivum
[33] = source organism: SARS coronavirus Tor2

In the case of LPESDLDKV, the Kd [1, 20] is reported as 7810 nM, the Kd [2, 20] is reported as ≥ 22600 nM and the Kd [3, 20] is reported as 6570 nM. For the same sequence, the Kd [4, 20] was 7280 nM and the Kd [5, 20] was 2290 nM.
In the case of QIFNIISYI, the Kd ([6]; source organism: Variola virus) is reported as 31.1 nM, the Kd [7] is reported as 111 nM and the Kd [8] is reported as 15.1 nM. It also gave a Kd [9] of 1.78 nM.
For NAWKVSCTI, the Kd [3, 21] was 55.3 nM and the Kd [4, 21] was 36 nM.
For KPKFCLIDGM, the Kd [1, 20] was 80.2 nM, the Kd [2, 20] was ≥ 22400 nM and the Kd [3, 20] was ≥ 69600 nM. It also gave a Kd [4, 20] of 11900 nM and a Kd [5, 20] of 14500 nM.
For AEPPFGESYI, the Kd [10, 22] was 183 nM, the Kd [11, 22] was 596 nM and the Kd [12, 22] was 877 nM.
LEHGSCVTTM gave a Kd [10, 21] of 64.8 nM and a Kd [12, 21] of 1080 nM.
IEREIPERSW gave a Kd [11, 23] of 61.6 nM and a Kd [12, 23] of 649 nM.
For FATCGLFAL, the Kd [1, 24] was 8620 nM, the Kd [2, 24] was 736 nM and the Kd [3, 24] was ≥ 27000 nM. The Kd [4, 24] was 8690 nM and the Kd [5, 24] was 6300 nM.
With ALFYKDGKL the Kd ([6]; source organism: Variola major virus) was 533 nM.
MLMPRQKI gave a Kd ([6]; source organism: Influenza A virus (A/turkey/Wisconsin/1968(H5N9))) of 1530 nM.
ALMEWLKTRPI was tested, and the Kd ([6]; source organism: Influenza A virus (A/swine/Hannover/1/1981(H1N1))) was 16.9 nM.
Sequence DLKPDNILL has a Kd ([6]; source organism: Plasmodium yoelii yoelii) of 154 nM.
With LPLPWAAGA the Kd [3, 23] was 1420 nM.
LPETLETLLL gave a Kd [3, 21] of 11000 nM and a Kd [4, 21] of 37.6 nM.
For VPSIKAGNDI, the Kd [1, 21] was 2130 nM, the Kd [3, 21] was 8470 nM and the Kd [4, 21] was ≥ 59800 nM.
IPVDLVKSSF showed a Kd [1, 20] of 20.5 nM, a Kd [2, 20] of 5.43 nM and a Kd [3, 20] of 5380 nM. It also gave a Kd [4, 20] of 8.61 nM and a Kd [5, 20] of 297 nM.
With PEDPVEIAL the Kd [13, 25] was ≥ 20000 nM and the Kd [14] was 160 nM.
In the case of RTCSNWVPL, the Kd ([6]; source organism: Vaccinia virus Ankara) is reported as 329 nM.
With LLNATDIAVA the Kd ([15]; source organism: Human immunodeficiency virus 1) was 427 nM.
RELKCGSGI gave a Kd [10, 26] of 13.8 nM and a Kd [11, 26] of 119 nM.
ELTLTNTSI was tested, and the Kd [15, 27] was 12500 nM.
HPLSINVSGV was tested, and the Kd [1, 20] was 3840 nM, the Kd [2, 20] was ≥ 54200 nM and the Kd [3, 20] was ≥ 29600 nM. It also gave a Kd [4, 20] of 18800 nM and a Kd [5, 20] of 120 nM.
In the case of YLLFASMGFK, the Kd [15, 20] is reported as 2570 nM, the Kd [1, 20] is reported as ≥ 69600 nM and the Kd [2, 20] is reported as ≥ 69900 nM.
SEMGANFRAD showed a Kd [11, 26] of 137 nM.
For WMMAMRYPITA, the Kd ([6]; source organism: Influenza A virus (A/chicken/Fujian/25/00(H9N2))) was 1.5 nM.
Sequence KEIAETQHG has a Kd [11, 21] of 62.1 nM.
In the case of NEGVMAVGL, the Kd [10, 28] is reported as 226 nM and the Kd [12, 28] is reported as 1810 nM.
With MPDCGMSVLA the Kd [1, 25] was 3880 nM, the Kd [2, 25] was 92.2 nM and the Kd [3, 25] was 9180 nM. For the same sequence, the Kd [4, 25] was 442 nM and the Kd [5, 25] was 105 nM.
With VPEFAKQYVL the Kd [1, 20] was 25.8 nM, the Kd [2, 20] was 30.7 nM and the Kd [3, 20] was 1550 nM. It also gave a Kd [4, 20] of 85.2 nM and a Kd [5, 20] of 1860 nM.
For EPVESCPLM, the Kd [1, 29] was 5100 nM, the Kd [2, 29] was 26.7 nM and the Kd [3, 29] was 1920 nM. The Kd [4, 29] was 177 nM and the Kd [5, 29] was ≥ 78100 nM.
MLWTTDKHV was tested, and the Kd ([6]; source organism: Human alphaherpesvirus 1 strain 17) was 1290 nM.
In the case of IPFDDIVRTM, the Kd [1, 20] is reported as 2940 nM, the Kd [2, 20] is reported as 192 nM and the Kd [3, 20] is reported as 8690 nM. The Kd [4, 20] was 1020 nM and the Kd [5, 20] was 4250 nM.
With NENDQYIYM the Kd [11, 21] was 25.5 nM and the Kd [12, 21] was 208 nM.
With DLFATQPGL the Kd [15, 27] was 12500 nM.
Work on NPDNTIAVI yielded a Kd [1, 20] of 233 nM, a Kd [2, 20] of 2.65 nM and a Kd [3, 20] of 1730 nM. It also gave a Kd [4, 20] of 1.42 nM and a Kd [5, 20] of 2210 nM.
KEISNMLNI showed a Kd [10, 30] of 191 nM, a Kd [11, 30] of 74.6 nM and a Kd [12, 30] of 68.7 nM.
For SMRRNYFTAEV, the Kd ([6]; source organism: Influenza A virus (A/quail/Hong Kong/SF550/00(H6N1))) was 1330 nM.
Work on QEHETSWHY yielded a Kd [11, 21] of 46.7 nM and a Kd [12, 21] of 29.6 nM.
In the case of KMTLFKSIL, the Kd [6, 20] is reported as 1280 nM.
For VPLLALGCY, the Kd [3, 26] was 14900 nM.
For NMETLNMTM, the Kd [15, 27] was 1390 nM.
WEALDTMYV gave a Kd [13, 31] of 556 nM.
With ATQPGLTSAV the Kd [15, 27] was ≥ 25000 nM.
QPSSQVSF was tested, and the Kd [1, 32] was ≥ 26200 nM, the Kd [2, 32] was ≥ 23900 nM and the Kd [3, 32] was 2960 nM. For the same sequence, the Kd [4, 32] was ≥ 38300 nM and the Kd [5, 32] was ≥ 87700 nM.
NEAKITDIM gave a Kd [10, 26] of 83.1 nM and a Kd [12, 26] of 4130 nM.
Sequence SEMAEALKGM has a Kd [10, 26] of 613 nM, a Kd [11, 26] of 68.3 nM and a Kd [12, 26] of 22.4 nM.
With ELNAELSDKL the Kd [6, 20] was ≥ 20000 nM.
In the case of YPFYVSPTEM, the Kd [1, 20] is reported as 2060 nM, the Kd [2, 20] is reported as 6.32 nM and the Kd [3, 20] is reported as 1550 nM. It also gave a Kd [4, 20] of 446 nM and a Kd [5, 20] of 82 nM.
For VEMGEAAAIF, the Kd [10, 23] was 971 nM, the Kd [11, 23] was 12.9 nM and the Kd [12, 23] was 166 nM.
Work on WHYDQENPY yielded a Kd [2, 23] of 1560 nM.
With NPTSETMYL the Kd [1, 20] was 116 nM, the Kd [2, 20] was 59.2 nM and the Kd [3, 20] was ≥ 60700 nM. For the same sequence, the Kd [4, 20] was 4.2 nM and the Kd [5, 20] was ≥ 37500 nM.
With FRKGSSIGK the Kd ([16]; source organism: dengue virus type 1) was ≥ 20000 nM.
In the case of LRWLVERRF, the Kd [16, 31] is reported as ≥ 20000 nM.
With LLMDCSGSI the Kd ([6]; source organism: Plasmodium falciparum) was 1.3 nM.
For SPLFLIVAA, the Kd [1, 33] was 481 nM, the Kd [2, 33] was 1040 nM and the Kd [3, 33] was 12100 nM. The Kd [4, 33] was ≥ 44700 nM and the Kd [5, 33] was 2.52 nM.
WPISKMDIGV gave a Kd [3, 30] of 10700 nM.
With VEPWLRGNQF the Kd [10, 26] was 3780 nM and the Kd [11, 26] was 73 nM.
In the case of AACRAAGL, the Kd ([15]; source organism: Hepatitis C virus (isolate 1)) is reported as ≥ 50000 nM.
For TPEQKAYVPA, the Kd [1, 20] was 1230 nM, the Kd [2, 20] was 11000 nM and the Kd [3, 20] was ≥ 55200 nM. The Kd [4, 20] was ≥ 45200 nM and the Kd [5, 20] was 13.3 nM.
Sequence YLRPYMHGY has a Kd [17] of 5460 nM and a Kd [18] of 12000 nM.
RKLLESQGR was tested, and the Kd [19] was 451 nM and the Kd [16, 25] was ≥ 20000 nM.
With YPQPQLPY the Kd [1, 32] was ≥ 22600 nM, the Kd [2, 32] was 249 nM and the Kd [3, 32] was 10900 nM. The Kd [4, 32] was 1340 nM and the Kd [5, 32] was ≥ 54500 nM.
Work on RPRFDDAYNI yielded a Kd [1, 20] of 5.26 nM, a Kd [2, 20] of 15000 nM and a Kd [3, 20] of 3410 nM. The Kd [4, 20] was 32.7 nM and the Kd [5, 20] was 2380 nM.
